For data set [1], the target named is c-Src. The following applies: read-out: dissociation constant (KD) of the CSK/c-Src complex; surface plasmon resonance; ref [9] Levinson et al.; cited from earlier work. A general note: Surface plasmon resonance follows binding to a sensor surface in real time, without labels.
The conditions of data set [2]: aqueous solution; size exclusion chromatography and sedimentation velocity; ref [24]; cited from earlier work. Background: In gel filtration, larger molecules generally elute earlier.
The test system of data set [3] is CHK. It counts as biochemical. The following applies: in vitro.

B1: CSK: C-terminal Src kinase (protein, UniProt P41240 2-450, looked up)
Tyrosine-protein kinase CSK: SAIQAAWPSGTECIAKYNFHGTAEQDLPFCKGDVLTIVAVTKDPNWYKAKNKVGREGIIPANYVQKREGVKAGTKLSLMPWFHGKITREQAERLLYPPETGLFLVRESTNYPGDYTLCVSCDGKVEHYRIMYHASKLSIDEEVYFENLMQLVEHYTSDADGLCTRLIKPKVMEGTVAAQDEFYRSGWALNMKELKLLQTIGKGEFGDVMLGDYRGNKVAVKCIKNDATAQAFLAEASVMTQLRHSNLVQLLGVIVEEKGGLYIVTEYMAKGSLVDYLRSRGRSVLGGDCLLKFSLDVCEAMEYLEGNNFVHRDLAARNVLVSEDNVAKVSDFGLTKEASSTQDTGKLPVKWTAPEALREKKFSTKSDVWSFGILLWEIYSFGRVPYPRIPLKDVVPRVEKGYKMDAPDGCPPAVYEVMKNCWHLDAAMRPSFLQLREQLEHIKTHELHL
As for B1, the Kd in data set [1] is 4 to 64 µM.

B2: CHK-His6: GSGS linker and a polyhistidine tag attached to the C-terminus of the rat CHK sequence (protein)
chain: MPTQRWAPGTQCMTKCENSRPKPGELAFRKGDMVTILEACEDKSWYRAKHHSSGQEGLLAAAALRQREALSTDPKLSLMPWFHGKISGQEAIQQLQPPEDGLFLVRESARHPGDYVLCVSFGRDVIHYRVLHRDGHLTIDEAVCFCNLMDMVEHYTRDKGAICTKLVKPKRKQGAKSAEEELAKAGWLLDLQHLTLGAQIGEGEFGAVLQGEYLGQKVAVKNIKCDVTAQAFLDETAVMTKLQHRNLVRLLGVILHHGLYIVMEHVSKGNLVNFLRTRGRALVSTSQLLQFALHVAEGMEYLESKKLVHRDLAARNILVSEDLVAKVSDFGLAKAELRKGLDSSRLPVKWTAPEALKNGRFSSKSDVWSFGVLLWEVFSYGRAPYPKMSLKEVSEAVEKGYRMEPPDSCPGPVHTLMGSCWEAEPSRRPPFRKIVEKLGRELRSVGVAAPAGGQEAEGSAPTRSQDP
modifications: left off: … (GSGS linker and polyhistidine tag), C-terminal, kept
As to B2, the oligomeric state result in data set [2] is on record as “monomeric in aqueous solution”.

B3: 14-3-3β: recombinant 14-3-3β (protein, UniProt P31946 1-246, looked up)
14-3-3 protein beta/alpha: MTMDKSELVQKAKLAEQAERYDDMAAAMKAVTEQGHELSNEERNLLSVAYKNVVGARRSSWRVISSIEQKTERNEKKQQMGKEYREKIEAELQDICNDVLELLDKYLIPNATQPESKVFYLKMKGDYFRYLSEVASGDNKQTTVSNSQQAYQEAFEISKKEMQPTHPIRLGLALNFSVFYYEILNSPEKACSLAKTAFDEAIAELDTLNEESYKDSTLIMQLLRDNLTLWTSENQGDEGDAGEGEN
With B3, the “level of CHK phosphorylation” value in data set [3] (purified recombinant proteins) was “negligible level”. Moreover, in data set [3] (purified recombinant proteins (SFig. 4A)), the “direct phosphorylation by CHK” value was “CHK could directly phosphorylate all three protein substrates in vitro”.
